Target: ADRB2 (Adrenoceptor Beta 2) (human, UniProt P07550 1-413)
Experiment: cell-based or functional assay

B1: CXCR4 (C-X-C Motif Chemokine Receptor 4) (receptor, human, UniProt P61073 1-352, looked up)
chain: MEGISIYTSDNYTEEMGSGDYDSMKEPCFREENANFNKIFLPTIYSIIFLTGIVGNGLVILVMGYQKKLRSMTDKYRLHLSVADLLFVITLPFWAVDAVANWYFGNFLCKAVHVIYTVNLYSSVLILAFISLDRYLAIVHATNSQRPRKLLAEKVVYVGVWIPALLLTIPDFIFANVSEADDRYICDRFYPNDLWVVVFQFQHIMVGLILPGIVILSCYCIIISKLSHSKGHQKRKALKTTVILILAFFACWLPYYIGISIDSFILLEIIKQGCEFENTVHKWISITEALAFFHCCLNPILYAFLGAKFKTSAQHALTSVSRGSSLKILSKGKRGGHSSVSTESESSSFHSS
  calcium response on co-stimulation with CXCL12 (200 nM) and formoterol (10 uM) relative to CXCL12 alone, HL-60 cells: ~8 fold
  calcium response on co-stimulation with CXCL12 (200 nM) and formoterol (10 uM) relative to CXCL12 alone, U937 cells: ~4 fold

Source: patent US20220273751A1 (GPCR THERAPEUTICS, published 2022)
